# Test results as given in US20220119825A1, “SCALABLE PEPTIDE-GPCR INT[…] SYSTEMS” (THE TRUSTEES OF COLUMBIA UNIVERSITY IN THE CITY OF NEW YORK, priority 2019, published 2022).
# Several values for one entry are separate records, joined by “and”; a condition that tells them apart may be missing. Equal values may be shown once. Read-outs that look alike come from different tables or passages of the source.
# What was measured:
# Assay in all cases: cell-based or functional assay
# [1] = biological target: T1, Sc.Ste2, Saccharomyces cerevisiae mating GPCR Ste2 (Saccharomyces cerevisiae, UniProt D6VTK4 1-431)
# T1 sequence: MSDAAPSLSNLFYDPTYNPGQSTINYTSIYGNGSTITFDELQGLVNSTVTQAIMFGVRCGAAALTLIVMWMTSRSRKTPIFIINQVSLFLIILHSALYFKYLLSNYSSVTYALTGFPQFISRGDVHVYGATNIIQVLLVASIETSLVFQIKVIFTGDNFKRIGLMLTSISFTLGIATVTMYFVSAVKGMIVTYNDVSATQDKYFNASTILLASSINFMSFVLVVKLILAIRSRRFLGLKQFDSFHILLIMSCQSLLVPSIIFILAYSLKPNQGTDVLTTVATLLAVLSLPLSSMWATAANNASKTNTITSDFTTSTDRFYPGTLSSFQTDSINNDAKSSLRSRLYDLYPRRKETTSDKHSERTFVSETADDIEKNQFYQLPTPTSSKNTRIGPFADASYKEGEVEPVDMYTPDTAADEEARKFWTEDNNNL
# [2] = biological target: T1, Sc.Ste2, Saccharomyces cerevisiae …; remark: listed apart in the source
# [3] = biological target: T2, Kl.Ste2, Ste2-like mating GPCR of Kluyveromyces lactis (Kluyveromyces lactis)
# T2 chain: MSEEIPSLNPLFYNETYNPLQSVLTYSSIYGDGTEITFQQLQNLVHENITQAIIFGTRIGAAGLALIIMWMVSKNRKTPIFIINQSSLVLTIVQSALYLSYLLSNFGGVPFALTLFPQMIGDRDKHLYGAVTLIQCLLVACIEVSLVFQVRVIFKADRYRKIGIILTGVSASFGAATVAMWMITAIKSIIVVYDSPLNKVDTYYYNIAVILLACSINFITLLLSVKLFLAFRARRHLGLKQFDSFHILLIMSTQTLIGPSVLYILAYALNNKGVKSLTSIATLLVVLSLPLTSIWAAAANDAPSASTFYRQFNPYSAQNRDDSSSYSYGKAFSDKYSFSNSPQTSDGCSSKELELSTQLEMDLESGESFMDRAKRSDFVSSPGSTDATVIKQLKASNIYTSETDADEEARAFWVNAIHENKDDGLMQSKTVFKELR
# [4] = biological target: T3, Gc.Ste2, Ste2-like mating GPCR of Geotrichum candidum (Geotrichum candidum)
# T3 chain: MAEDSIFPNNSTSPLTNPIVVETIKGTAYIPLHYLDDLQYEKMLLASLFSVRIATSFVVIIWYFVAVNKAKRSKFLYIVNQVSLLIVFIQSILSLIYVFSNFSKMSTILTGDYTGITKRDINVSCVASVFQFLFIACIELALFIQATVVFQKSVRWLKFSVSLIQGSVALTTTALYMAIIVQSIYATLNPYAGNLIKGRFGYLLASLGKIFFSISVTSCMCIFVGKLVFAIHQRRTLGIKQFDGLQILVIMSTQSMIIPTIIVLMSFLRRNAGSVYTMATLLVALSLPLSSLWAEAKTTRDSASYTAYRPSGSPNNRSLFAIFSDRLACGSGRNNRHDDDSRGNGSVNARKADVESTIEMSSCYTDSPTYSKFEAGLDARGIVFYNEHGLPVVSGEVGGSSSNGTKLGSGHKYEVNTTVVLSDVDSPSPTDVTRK
# [5] = biological target: T4, Ct.Ste2, Ste2-like mating GPCR of Candida tropicalis (Candida tropicalis)
# T4 chain: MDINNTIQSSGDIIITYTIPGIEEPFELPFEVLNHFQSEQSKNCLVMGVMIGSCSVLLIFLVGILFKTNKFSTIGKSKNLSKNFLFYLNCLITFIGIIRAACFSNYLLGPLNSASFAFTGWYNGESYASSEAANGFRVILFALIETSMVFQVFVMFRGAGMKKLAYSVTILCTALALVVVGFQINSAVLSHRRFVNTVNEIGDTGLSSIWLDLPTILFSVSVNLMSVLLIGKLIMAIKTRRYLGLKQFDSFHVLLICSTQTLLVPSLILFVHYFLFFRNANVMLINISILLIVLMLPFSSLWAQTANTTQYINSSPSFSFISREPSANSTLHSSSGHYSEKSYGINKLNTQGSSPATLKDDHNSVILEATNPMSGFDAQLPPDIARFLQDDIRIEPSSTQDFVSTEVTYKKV
# [6] = biological target: T5, Kp.Ste2, Ste2-like mating GPCR of Komagataella (Pichia) pastoris (Komagataella (Pichia) pastoris)
# T5 chain: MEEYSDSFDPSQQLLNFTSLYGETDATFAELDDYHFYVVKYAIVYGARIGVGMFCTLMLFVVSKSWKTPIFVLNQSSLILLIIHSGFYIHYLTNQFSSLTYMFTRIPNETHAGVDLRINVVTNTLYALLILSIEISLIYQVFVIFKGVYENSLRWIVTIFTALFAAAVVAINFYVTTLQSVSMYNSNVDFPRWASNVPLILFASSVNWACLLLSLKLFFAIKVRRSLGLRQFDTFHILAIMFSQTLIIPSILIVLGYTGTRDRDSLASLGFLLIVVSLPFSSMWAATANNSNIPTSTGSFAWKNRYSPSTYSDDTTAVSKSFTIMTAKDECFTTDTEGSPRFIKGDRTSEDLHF
binder,measurement,setting,value
WHWLQLKPGQPMY [Sc peptide ligand #1 WHWLQLKPGQPMY (S. cerevisiae alpha-factor)],EC50 (FUS1p-RFP reporter),[1],1.25 nM and ~1 nM
same,Bttm (FUS1p-RFP reporter),[2],36.2 fluorescence/A600 (not printed)
same,EC50 (FUS1p-RFP reporter),[2],-8.9 log10 M (not printed)
same,Fold Change (FUS1p-RFP reporter),[2],7 fold
same,Span (FUS1p-RFP reporter),[2],217 fluorescence/A600 (not printed)
same,Top (FUS1p-RFP reporter),[2],253 fluorescence/A600 (not printed)
WSWITLRPGQPIF [Kl peptide ligand #1 WSWITLRPGQPIF],Bttm (FUS1p-RFP reporter),[3],37.2 fluorescence/A600 (not printed)
same,EC50 (FUS1p-RFP reporter),[3],-7.3 log10 M (not printed)
same,Fold Change (FUS1p-RFP reporter),[3],6 fold
same,Span (FUS1p-RFP reporter),[3],186 fluorescence/A600 (not printed)
same,Top (FUS1p-RFP reporter),[3],223 fluorescence/A600 (not printed)
GDWGWFWYVPRPGDPAM [Gc peptide ligand #1 GDWGWFWYVPRPGDPAM],Bttm (FUS1p-RFP reporter),[4],22.9 fluorescence/A600 (not printed)
same,EC50 (FUS1p-RFP reporter),[4],-6.9 log10 M (not printed)
same,Fold Change (FUS1p-RFP reporter),[4],8.2 fold
same,Span (FUS1p-RFP reporter),[4],164 fluorescence/A600 (not printed)
same,Top (FUS1p-RFP reporter),[4],187 fluorescence/A600 (not printed)
KFKFRLTRYGWFSPN [Ct peptide ligand #1 KFKFRLTRYGWFSPN],Bttm (FUS1p-RFP reporter),[5],32 fluorescence/A600 (not printed)
same,EC50 (FUS1p-RFP reporter),[5],-8.2 log10 M (not printed)
same,Fold Change (FUS1p-RFP reporter),[5],5.2 fold
same,Span (FUS1p-RFP reporter),[5],135 fluorescence/A600 (not printed)
same,Top (FUS1p-RFP reporter),[5],167 fluorescence/A600 (not printed)
FRWRNNEKNQPFG [Kp peptide ligand #1 (Table 3: …)],Bttm (FUS1p-RFP reporter),[6],44.8 fluorescence/A600 (not printed)
same,EC50 (FUS1p-RFP reporter),[6],-8.2 log10 M (not printed)
same,Fold Change (FUS1p-RFP reporter),[6],6 fold
same,Span (FUS1p-RFP reporter),[6],224 fluorescence/A600 (not printed)
same,Top (FUS1p-RFP reporter),[6],269 fluorescence/A600 (not printed)
